For this experiment, the target named is spliceosomal snRNP core Sm proteins, endogenous in cell extracts. The experiment in a line: co-IP with Y12 from transfected 293T cells, Western blot.

As for “myc-tagged SMNΔC26 (from UniProt Q16637 1-268)”, the amount co-immunoprecipitated relative to wild-type SMN (fraction of wild type) was 0.33.
